Drawing on publication PMC3202870, this text covers stoichiometry N for one substance.

The target in this experiment is PA63, the cell-associated furin-cleavage product of Bacillus anthracis protective antigen (PA83) (Bacillus anthracis). As to the kind of experiment: SDS-PAGE and phosphoimaging of 125I-PA recovered from cells.

“PA63, the cell-associated furin-cleavage product of Bacillus anthracis protective antigen (PA83) (domain or fragment)”: the stoichiometry N was found to be 7.
